Experimental data taken from PMC9352680, “A comprehensive thermodynamic model for RNA binding by the Saccharomyces cerevisiae Pumilio protein PUF4”.
Numbering of substitutions follows the chain as printed. Numbers in names are those of the source.

T1: PUF4 RNA-binding domain (Saccharomyces cerevisiae, UniProt P25339 537-888)
T1 sequence: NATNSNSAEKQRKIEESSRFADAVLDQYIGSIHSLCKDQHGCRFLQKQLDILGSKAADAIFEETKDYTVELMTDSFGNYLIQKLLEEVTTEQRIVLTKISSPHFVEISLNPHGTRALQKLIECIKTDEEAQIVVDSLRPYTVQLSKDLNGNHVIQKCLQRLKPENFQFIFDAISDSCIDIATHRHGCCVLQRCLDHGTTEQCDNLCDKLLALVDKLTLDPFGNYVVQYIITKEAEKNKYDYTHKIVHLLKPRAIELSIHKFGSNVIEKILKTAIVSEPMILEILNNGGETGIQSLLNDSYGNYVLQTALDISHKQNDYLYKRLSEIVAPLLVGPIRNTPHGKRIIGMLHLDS

B1: Ic_S2_P3E.1_K3.1_C3.1_H3.1_A3.1_F3.1_[A8G]_T3.1 (ssRNA)
RNA: UUUGAUUAAUAUGAUAUCGUUCUUUCUUGUAUAUGUUCUUUCUCGAUAUCAUAUUAAUCUUU
B2: Id_iii_S4_P3E.5_K3.1_C3.3_[C-2G]_H3.1_A3.1_F3.1_T3.2 (ssRNA)
RNA: UUUGACAACUGAUCGUUCUUUCUUGUUGUAUAUAUAUUCUUUCUCGAUCAGUUGUCUUU
B3: Id_iii_S4_P3E.9_K3.5_C3.3_[T-3G]_H3.1_A3.2_F3.2_T3.2 (ssRNA)
RNA: B2 RNA with U24G, G25C, U31A, U33A
B4: Id_iii_S4_P3E.6_K3.2_C3.3_H3.2_A3.1_F3.1_T3.2_[A10C] (ssRNA)
RNA: B2 RNA with G25C, G28A, A36C
B5: Id_iii_S4_P3E.9_K3.5_C3.3_H3.1_A3.2_F3.2_T3.2_[A10C] (ssRNA)
RNA: B2 RNA with G25C, U31A, U33A, A36C
B6: Id_iii_S4_P3E.7_K3.3_C3.3_[C-2G]_H3.3_A3.1_F3.1_T3.2 (ssRNA)
RNA: B2 RNA with U27A, G28C, U29A, A30C
B7: Id_iii_S4_P3E.8_K3.4_C3.3_[T-1C]_H3.1_A3.2_F3.1_T3.2 (ssRNA)
RNA: B2 RNA with G25C, U26C, U31A
B8: Id_iii_S4_P3E.7_K3.3_C3.3_[T-1A]_H3.3_A3.1_F3.1_T3.2 (ssRNA)
RNA: B2 RNA with G25C, U26A, U27A, G28C, U29A, A30C
B9: Id_iii_S4_P3E.6_K3.2_C3.3_[C-2G]_H3.2_A3.1_F3.1_T3.2 (ssRNA)
RNA: B2 RNA with G28A
B10: Id_iii_S4_P3E.6_K3.2_C3.3_[T-1C]_H3.2_A3.1_F3.1_T3.2 (ssRNA)
RNA: B2 RNA with G25C, U26C, G28A
B11: Id_iii_S4_P3E.8_K3.4_C3.3_H3.1_A3.2_F3.1_T3.2_[A10G] (ssRNA)
RNA: B2 RNA with G25C, U31A, A36G
B12: Id_iii_S4_P3E.9_K3.5_C3.3_[T-1A]_H3.1_A3.2_F3.2_T3.2 (ssRNA)
RNA: B2 RNA with G25C, U26A, U31A, U33A
B13: Id_iii_S4_P3E.5_K3.1_C3.3_[T-1A]_H3.1_A3.1_F3.1_T3.2 (ssRNA)
RNA: B2 RNA with G25C, U26A
B14: Id_iii_S4_P3E.9_K3.5_C3.3_[C-2T]_H3.1_A3.2_F3.2_T3.2 (ssRNA)
RNA: B2 RNA with G25U, U31A, U33A
B15: Id_iii_S4_P3E.7_K3.3_C3.3_[T-3A]_H3.3_A3.1_F3.1_T3.2 (ssRNA)
RNA: B2 RNA with U24A, G25C, U27A, G28C, U29A, A30C
B16: Id_iii_S4_P3E.7_K3.3_C3.3_H3.3_A3.1_F3.1_T3.2_[A10C] (ssRNA)
RNA: B2 RNA with G25C, U27A, G28C, U29A, A30C, A36C
B17: Id_iii_S2_P5E.8_K5.4_C5.3_[T-3A]_H5.1_A5.2_F5.1_T5.2 (ssRNA)
RNA: UUUGAUUAAUAUGAUAUCGUUCUUUCUACUUGUAAUAUUAUAUUCUUUCUCGAUAUCAUAUUAAUCUUU
B18: Id_iii_S2_P5E.8_K5.4_C5.3_[C-2A]_H5.1_A5.2_F5.1_T5.2 (ssRNA)
RNA: B17 RNA with A28U, C29A
B19: Id_iii_S2_P5E.8_K5.4_C5.3_H5.1_A5.2_F5.1_T5.2_[A12C] (ssRNA)
RNA: B17 RNA with A28U, A42C
B20: Id_iii_S2_P5E.8_K5.4_C5.3_[C-2T]_H5.1_A5.2_F5.1_T5.2 (ssRNA)
RNA: B17 RNA with A28U, C29U
B21: Id_iii_S2_P5E.9_K5.5_C5.3_H5.1_A5.2_F5.2_T5.2_[A12G] (ssRNA)
RNA: B17 RNA with A28U, U38A, U39A, A42G
B22: Id_iii_S2_P5E.8_K5.4_C5.3_H5.1_A5.2_F5.1_T5.2_[A12T] (ssRNA)
RNA: B17 RNA with A28U, A42U
B23: Id_iii_S2_P5E.8_K5.4_C5.3_[C-2G]_H5.1_A5.2_F5.1_T5.2 (ssRNA)
RNA: B17 RNA with A28U, C29G
B24: Id_iii_S2_P5E.9_K5.5_C5.3_H5.1_A5.2_F5.2_T5.2_[A12T] (ssRNA)
RNA: B17 RNA with A28U, U38A, U39A, A42U
B25: Id_iii_S2_P5E.8_K5.4_C5.3_H5.1_A5.2_F5.1_T5.2_[A12G] (ssRNA)
RNA: B17 RNA with A28U, A42G
B26: Id_iii_S2_P5E.9_K5.5_C5.3_H5.1_A5.2_F5.2_T5.2_[A12C] (ssRNA)
RNA: B17 RNA with A28U, U38A, U39A, A42C
B27: Id_iii_S4_P5E.5_K5.1_C5.3_H5.1_A5.1_F5.1_T5.2_[A12C] (ssRNA)
RNA: UUUGACAACUGAUCGUUCUUUCUUCUUGUAUUAUUAUCUUCUUUCUCGAUCAGUUGUCUUU
B28: Id_iii_S4_P5E.7_K5.3_C5.3_[C-2T]_H5.3_A5.1_F5.1_T5.2 (ssRNA)
RNA: B27 RNA with C25U, U27A, G28C, U29A, A30C, C38A
B29: Id_iii_S4_P5E.5_K5.1_C5.3_H5.1_A5.1_F5.1_T5.2_[A12T] (ssRNA)
RNA: B27 RNA with C38U
B30: Id_iii_S4_P5E.7_K5.3_C5.3_[T-1C]_H5.3_A5.1_F5.1_T5.2 (ssRNA)
RNA: B27 RNA with U26C, U27A, G28C, U29A, A30C, C38A
B31: Id_iii_S4_P5E.7_K5.3_C5.3_[C-2A]_H5.3_A5.1_F5.1_T5.2 (ssRNA)
RNA: B27 RNA with C25A, U27A, G28C, U29A, A30C, C38A
B32: Id_iii_S4_P4E.5_K4.1_C4.3_[C-2A]_H4.1_A4.1_F4.1_T4.2 (ssRNA)
RNA: UUUGACAACUGAUCGUUCUUUCUUAUUGUAUAUUAGUUUCUUUCUCGAUCAGUUGUCUUU
B33: Id_iii_S4_P4E.7_K4.3_C4.3_[C-2A]_H4.3_A4.1_F4.1_T4.2 (ssRNA)
RNA: B32 RNA with U27A, G28C, U29A, A30C
B34: Id_iii_S4_P4E.7_K4.3_C4.3_[C-2G]_H4.3_A4.1_F4.1_T4.2 (ssRNA)
RNA: B32 RNA with A25G, U27A, G28C, U29A, A30C
B35: Id_iii_S4_P4E.6_K4.2_C4.3_[T-1A]_H4.2_A4.1_F4.1_T4.2 (ssRNA)
RNA: B32 RNA with A25C, U26A, G28A
B36: Id_iii_S4_P4E.8_K4.4_C4.3_H4.1_A4.2_F4.1_T4.2_[G10C] (ssRNA)
RNA: B32 RNA with A25C, A32U, G36C
B37: Id_iii_S4_P4E.8_K4.4_C4.3_[T-3C]_H4.1_A4.2_F4.1_T4.2 (ssRNA)
RNA: B32 RNA with U24C, A25C, A32U
B38: Id_iii_S4_P4E.8_K4.4_C4.3_[C-2A]_H4.1_A4.2_F4.1_T4.2 (ssRNA)
RNA: B32 RNA with A32U
B39: Id_iii_S4_P4E.8_K4.4_C4.3_[T-1C]_H4.1_A4.2_F4.1_T4.2 (ssRNA)
RNA: B32 RNA with A25C, U26C, A32U
B40: Id_iii_S4_P4E.8_K4.4_C4.3_[T-1G]_H4.1_A4.2_F4.1_T4.2 (ssRNA)
RNA: B32 RNA with A25C, U26G, A32U
B41: Id_iii_S4_P4E.7_K4.3_C4.3_H4.3_A4.1_F4.1_T4.2_[T11C] (ssRNA)
RNA: B32 RNA with A25C, U27A, G28C, U29A, A30C, U37C
B42: Id_iii_S4_P4E.8_K4.4_C4.3_[C-2T]_H4.1_A4.2_F4.1_T4.2 (ssRNA)
RNA: B32 RNA with A25U, A32U
B43: Id_iii_S4_P4E.8_K4.4_C4.3_H4.1_A4.2_F4.1_T4.2_[T11C] (ssRNA)
RNA: B32 RNA with A25C, A32U, U37C

Biological target: T1, PUF4 RNA-binding domain
Test: Mg; RNA-MaP; 20 mM Na-HEPES pH 7.4, 30 mM KOAc, 0.75 mM MgCl2, 0.1% Tween-20, 5% glycerol, 0.1 mg/mL BSA, 2 mM DTT; 25 C; 0.0125-409.6 nM protein
Settings: tags: N-His6-TEV cleaved; C-SNAP kept, Cy3B-labelled; label: tethered on chip by stalled RNA polymerase

Binder | Kd
UCUCUUUGUAAAAUUAUCUCUU (ssRNA) [Ib_S1_P5E.1_K5.1_C5.1_H5.1_A5.1_[T5A]_[T6A]_F5.1_T5.1] | 10.6 nM
ACAAACUCUUAUAUAUACAACAAAC (ssRNA) [Id_iii_S3_P3E.6_K3.2_C3.3_H3.2_A3.1_F3.1_T3.2_[T9C]] | 693 nM
ACAAACUAUACACUAUAUAACAAAC (ssRNA) [Id_iii_S3_P3E.7_K3.3_C3.3_[C-2A]_H3.3_A3.1_F3.1_T3.2] | 32.5 nM
UCUCUUGGUAUAUAUCUCUU (ssRNA) [Ia_S1_P3E.1_K3.1_C3.1_H3.1_[T1G]_A3.1_F3.1_T3.1] | 2290 nM
ACAAACUCAACACUAUAUAACAAAC (ssRNA) [Id_iii_S3_P3E.7_K3.3_C3.3_[T-1A]_H3.3_A3.1_F3.1_T3.2] | 1780 nM
UCUCUUUGUACUCUUAUCUCUU (ssRNA) [Ib_S1_P5E.1_K5.1_C5.1_H5.1_A5.1_[T5C]_[A7C]_F5.1_T5.1] | 9.68 nM
B1 | 11.7 nM
ACAAACUCCUAUAUAUAUAACAAAC (ssRNA) [Id_iii_S3_P3E.6_K3.2_C3.3_[T-1C]_H3.2_A3.1_F3.1_T3.2] | 218 nM
ACAAACUCCACACUAUUAGUACAAAC (ssRNA) [Id_iii_S3_P4E.7_K4.3_C4.3_[T-1C]_H4.3_A4.1_F4.1_T4.2] | > 2300 nM
B2 | 1.77 nM
B3 | 25.8 nM
B4 | 131 nM
B5 | 308 nM
B6 | 0.724 nM
B7 | 2.97 nM
B8 | 137 nM
B9 | 20.4 nM
B10 | 33.1 nM
B11 | 14.2 nM
B12 | 48.5 nM

Binder | Kd
B13 | 1.71 nM
B14 | 34.5 nM
B15 | 364 nM
B16 | 611 nM
B17 | 8.09 nM
B18 | 40.3 nM
B19 | 3.6 nM
B20 | 8.91 nM
B21 | 189 nM
B22 | 2.65 nM
B23 | 15.4 nM
B24 | 158 nM
B25 | 6.61 nM
B26 | 146 nM
B27 | 1.71 nM
B28 | 513 nM
B29 | 1.28 nM
B30 | 543 nM
B31 | 1020 nM
B32 | 0.43 nM

Binder | Kd
B33 | 91.7 nM
B34 | 1.75 nM
B35 | 7.5 nM
B36 | 1.79 nM
B37 | 0.631 nM
B38 | 1.14 nM
B39 | 0.819 nM
B40 | 1.14 nM
B41 | > 2300 nM
B42 | 0.755 nM
B43 | 1.04 nM
ACAAACUUUUAUAUAUAUAACAAAC (ssRNA) [Id_iii_S3_P3E.6_K3.2_C3.3_[C-2T]_H3.2_A3.1_F3.1_T3.2] | 598 nM
ACAAACACUACACUAUAUAACAAAC (ssRNA) [Id_iii_S3_P3E.7_K3.3_C3.3_[T-3A]_H3.3_A3.1_F3.1_T3.2] | 760 nM
UCUCUUUGUACUGUUAUCUCUU (ssRNA) [Ib_S1_P5E.1_K5.1_C5.1_H5.1_A5.1_[T5C]_[A7G]_F5.1_T5.1] | 7.89 nM
UCUCUUUGUAGUUUUAUCUCUU (ssRNA) [Ib_S1_P5E.1_K5.1_C5.1_H5.1_A5.1_[T5G]_[A7T]_F5.1_T5.1] | 27.2 nM
ACAAACCCUUAUAUAUAUAACAAAC (ssRNA) [Id_iii_S3_P3E.6_K3.2_C3.3_[T-3C]_H3.2_A3.1_F3.1_T3.2] | 446 nM
ACAAACUCUACACUAUAUUACAAAC (ssRNA) [Id_iii_S3_P3E.7_K3.3_C3.3_H3.3_A3.1_F3.1_T3.2_[A10T]] | 922 nM
UCUCUUUGUAGUCUUAUCUCUU (ssRNA) [Ib_S1_P5E.1_K5.1_C5.1_H5.1_A5.1_[T5G]_[A7C]_F5.1_T5.1] | 93.7 nM
